B1: BMP4: Bone Morphogenetic Protein 4 (GeneID: 652), recombinant, commercially available (R&D Systems) (protein, UniProt P12644 293-408, looked up)
Bone morphogenetic protein 4: SPKHHSQRARKKNKNCRRHSLYVDFSDVGWNDWIVAPPGYQAFYCHGDCPFPLADHLNSTNHAIVQTLVNSVNSSIPKACCVPTELSAISMLYLDEYDKVVLKNYQEMVVEGCGCR

Tests used:
SFEBq-derived vesicles = experiment: CPEC vesicle secretion assay with secretion inhibitors, mESC-derived vesicles; assay type: cell-based, mouse; conditions: 100 uM acetazolamide and 5 mM ouabain together, 24 hrs; recovered after removal
Excerpt: (§1) To assess functional activity, we adopted a well-established in vitro assay for CPEC vesicle formation and secretion (33, 34). As described previously using this assay, primary dissociated CPECs on Matrigel self-assembled into hollow vesicles that grew in diameter, collapsed after treatment with the secretion inhibitors acetazolamide and ouabain, and regrew upon inhibitor withdrawal (FIG. 5A-G). Indistinguishable vesicles formed from dissociated SFEBq aggregates treated with BMP4 (n=6/6 independent cultures), but not from controls (n=0/6; FIGS. 5H,I). Like the primary CPEC vesicles, the SFEBq-derived vesicles were Aqp1 positive (FIG. 5I, inset), grew (FIGS. 5J,K), collapsed after exposure to the secretion inhibitors (FIG. 5L), and recovered after inhibitor removal (FIG. 5M).
(§2) Primary CP cells or SFEBq-derived cells were cultured on Matrigel as previously described (33, 34). Briefly, Matrigel (BD Biosciences, San Jose, Calif.) was mixed 1:1 with DMEM (Invitrogen) and incubated for at least 30 min at 37 C. BMP4-treated SFEBq aggregates at 12 DIV were dissociated with TrypLE Express (Invitrogen) and plated at 500,000 to 600,000 cells/well onto Matrigel-coated 6-well plates in DMEM with 10% FBS, 2 mM L-glutamine, NEAA, and sodium pyruvate (Invitrogen). […]

primary CPEC vesicles = experiment: CPEC vesicle secretion assay with secretion inhibitors, primary CPECs; assay type: cell-based, mouse; conditions: 100 uM acetazolamide and 5 mM ouabain together, 24 hrs; regrew upon withdrawal
Excerpt: as §1, §2

mESC-derived NECs = experiment: BMP4 treatment of mESC-derived SFEBq aggregates, CPEC/NEC marker RT-qPCR; assay type: cell-based, mouse
Protocol: Significant and similar levels of CPEC gene induction were also seen with one-time BMP4 addition alone (data not shown). These findings indicate a relatively short and early critical period in culture for BMP4-mediated CPEC marker induction, which occurs at the expense of NEC markers.
(§3) These were performed as described (21, 26) on a StepOne Plus (Applied Biosystems, Carlsbad, Calif.) using 18S normalization and Excel for graphing and statistics (two-tailed t-tests assuming equal variance). All primers and amplicons were validated as described (21, 26). All studies represent n>2 biological replicates per condition, unless otherwise specified.
Neural differentiation was adapted from Eiraku et al. (29). Briefly, mESCs were passaged for two hours onto gelatin-coated plates to reduce MEF load, dissociated to single cells using trypsin, then plated at varying concentrations onto ultra-low attachment U-bottom 96-well plates (Corning #7007, Lowell, Mass.) to form SFEBq aggregates. Differentiation media (29) was replaced initially, then every other day, with fresh media containing 0.5 to 50 ng/ml BMP4 (R&D Systems). Neural rosette (NR) cultures were based on the Elkabetz et al. method (30). […] For the combined SFEBq/NR method, we first generated SFEBq aggregates for 5 DIV, then transferred aggregates into adherent mNR conditions for another 2 DIV (7 DIV total).

[1] = tested on: dissociated SFEBq aggregates; experiment: in vitro assay for CPEC vesicle formation on Matrigel; assay type: cell-based, mouse; conditions: SFEBq aggregates treated with 50 ng/ml BMP4; controls n=0/6
Excerpt: as §1, §2

H1-derived NRs = experiment: BMP4 addition to hESC-derived neural rosettes (NR method); assay type: cell-based, human; conditions: BMP4 0.5-15 ng/ml, evident by 7 DIV after addition
Excerpt: We then attempted to derive iCPECs from human ESCs using an analogous approach. To first generate NECs, we used the Zhang et al. method (35) to generate neural rosettes (NRs) (FIGS. 6A,B) with predominant forebrain character (30). […] Eventually, the hESC-derived vesicles transformed into flat epithelial sheets (FIG. 6D), and occasional multivesicular bodies also formed (FIG. 6E). […] H9 cultures yielded similar morphologic changes, although NR-to-vesicle transformations were less prominent.
1) Neural rosette (NR) method. Neural induction with NR formation was adapted from Zhang et al. (35). Human ESC colonies were partially dissociated with 1 mg/ml dispase, then plated in suspension to form embryoid bodies (EBs) for 3 DIV. EBs were then transferred to suspension culture with neural induction media—DMEM/F12 (Invitrogen), N2 (Invitrogen), NEAA, heparin (2 ug/ml) and FGF2 (20 ng/ml)—for another two days. On 6 DIV, EBs were transferred to adherent PDL/laminin-coated plates with neural induction media, which was fully replaced every other day. On 16 DIV, media was fully replaced with neural induction media containing BMP4 (0.5-15 ng/ml), with full media replacement every other day. […] The SFEBq media was changed every 3 days, with or without fresh BMP4, and the culture was analyzed after 1-2 weeks of BMP4 incubation, with greater CPEC differentiation detected at 2 weeks.

H9 hESC SFEBq aggregates = experiment: BMP4 applied to H9 hESC SFEBq aggregates, CPEC marker expression; assay type: cell-based, human; conditions: BMP4 0-15 ng/ml, 18 to 24-DIV aggregates
Protocol: We also generated human CPECs by applying the SFEBq neural induction method to human ESCs (H9 line). H9 hESCs were optimized for aggregate size and assessed for NEC gene expression over time. 9000-cell SFEBq aggregates were optimal, and NEC expression plateaued by 18-24 DIV. BMP4 (0-15 ng/ml) was applied to 12-, 15-, 18-, 21-, and 24-DIV aggregates. […] Based on RT-qPCR studies, peak expression of NEC markers, but not radial glial markers, coincided with the 21 DIV aggregates.
1) Neural rosette (NR) method. Neural induction with NR formation was adapted from Zhang et al. (35). Human ESC colonies were partially dissociated with 1 mg/ml dispase, then plated in suspension to form embryoid bodies (EBs) for 3 DIV. EBs were then transferred to suspension culture with neural induction media—DMEM/F12 (Invitrogen), N2 (Invitrogen), NEAA, heparin (2 ug/ml) and FGF2 (20 ng/ml)—for another two days. On 6 DIV, EBs were transferred to adherent PDL/laminin-coated plates with neural induction media, which was fully replaced every other day. On 16 DIV, media was fully replaced with neural induction media containing BMP4 (0.5-15 ng/ml), with full media replacement every other day. 2) Aggregate (SFEBq) method. […] The SFEBq media was changed every 3 days, with or without fresh BMP4, and the culture was analyzed after 1-2 weeks of BMP4 incubation, with greater CPEC differentiation detected at 2 weeks.

[2] = tested on: mESC-derived NECs plated as adherent monolayers; experiment: combined aggregation-monolayer system, CPEC markers by RT-qPCR and immunocytochemistry; assay type: cell-based, mouse
Protocol: In addition to direct BMP4 applications to SFEBq aggregates, we also dissociated SFEBq aggregates into single cells after 5DIV (i.e. after they had differentiated into NECs), plated them as adherent monolayers onto PDL-laminin-coated plates at 300,000-600,000 cells, then added BMP4 (0.5-50 ng/ml BMP4) for another 5 days (10DIV total). This combined aggregation-monolayer system allows all NECs to experience the same BMP4 concentration in culture. […] The optimal concentration of BMP4 is probably between 0.5 ng/ml-50 ng/ml BMP4 in this system.
as §3

| Molecule | vesicle response to secretion inhibitors (SFEBq-derived vesicles) | vesicle response to secretion inhibitors (primary CPEC vesicles) | CPEC markers Ttr, Lmx1a, and Msx1 induction (mESC-derived NECs; 5-day aggregates, BMP4 5 or 50 ng/ml for 7 DIV) | CPEC markers Aqp1 and Cldn1 induction (mESC-derived NECs; 5-day aggregates, BMP4 concentration-dependent) | NEC markers Sox1 and Foxg1 expression (mESC-derived NECs; with increasing BMP4 concentration) | independent cultures forming vesicles on Matrigel [1] | morphologic transformation of neural rosettes (H1-derived NRs) | CPEC markers Ttr, Otx2, and Lmx1a expression (H9 hESC SFEBq aggregates) | CPEC markers by RT-qPCR at 50 ng/ml ([2]; 50 ng/ml BMP4) | optimal BMP4 concentration for CPEC marker upregulation ([2]; 0.5-50 ng/ml BMP4 for 5 days, 10DIV total) [ng/mL] |
| --- | --- | --- | --- | --- | --- | --- | --- | --- | --- | --- |
| CC(=O)Nc1nnc(S(N)(=O)=O)s1 [acetazolamide] | collapsed | collapsed |  |  |  |  |  |  |  |  |
| C[C@@H]1O[C@@H](O[C@H]2C[C@@H](O)[C@]3(CO)[C@H]4[C@H](O)C[C@]5(C)[C@@H](C6=CC(=O)OC6)CC[C@]5(O)[C@@H]4CC[C@]3(O)C2)[C@H](O)[C@H](O)[C@H]1O [ouabain] | collapsed | collapsed |  |  |  |  |  |  |  |  |
| B1 |  |  | markedly induced | strongly induced | downregulated | 6/6 | transformed directly into expanding vesicular structures | upregulated | down-regulation of CPEC markers | 5 |

Reference: patent US8748176B2, “Generation of choroid plexus epithelial cells from human embryonic stem cells” (The Regents of the University of California, priority 2011, dated 2014)
